In the supplement of paper PMC9112550, “Optimization of the antimicrobial peptide Bac7 by deep mutational scanning” (BMC Biology, 2022):

System: Escherichia coli TOP10
Experiment: shrunken log2 fold change of peptide-encoding DNA abundance (4.5 h post-induction vs induction); higher = less antimicrobial activity (less host growth inhibition)
Conditions: time post-induction: 4.5 h; library: site-saturation at positions 5, 18, 19, 20
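Further: peptides expressed intracellularly from a pBAD plasmid library in pooled LB shake-flask culture, induced with 0.3% L-arabinose, DNA abundance read by NGS, three biological replicates, DESeq2 with apeglm shrinkage.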

| Sequence | shrunken log2 fold change |
| --- | --- |
| RRIRWRPPRLPRPRPRPQDYPRP | -0.406 |
| RRIRNRPPRLPRPRPRPALNPRP | 0.0657 |
| RRIRKRPPRLPRPRPRPQSEPRP | 0.0585 |
| RRIRIRPPRLPRPRPRPWAEPRP | -0.167 |
| RRIRQRPPRLPRPRPRPFPMPRP | 0.155 |
| RRIRFRPPRLPRPRPRPAIIPRP | -0.149 |
| RRIRARPPRLPRPRPRPLVMPRP | 0.0657 |
| RRIRVRPPRLPRPRPRPLWTPRP | 0.0846 |
| RRIRSRPPRLPRPRPRPLDNPRP | -0.339 |
| RRIRERPPRLPRPRPRPVWIPRP | -0.556 |
| RRIRYRPPRLPRPRPRPQRIPRP | -0.0956 |
| RRIRMRPPRLPRPRPRPSLEPRP | 0.895 |
| RRIRDRPPRLPRPRPRPSSAPRP | 0.0666 |
| RRIRERPPRLPRPRPRPNSCPRP | -0.128 |
| RRIRVRPPRLPRPRPRPAMYPRP | 3.58 |
| RRIRDRPPRLPRPRPRPTLFPRP | 0.533 |
| RRIRHRPPRLPRPRPRPDWWPRP | 0.0937 |
| RRIRARPPRLPRPRPRPPPGPRP | 1.16 |
| RRIRRRPPRLPRPRPRPAYLPRP | -0.35 |
| RRIRNRPPRLPRPRPRPMPRPRP | 0.11 |
| RRIRLRPPRLPRPRPRPQILPRP | -0.172 |
| RRIRGRPPRLPRPRPRPTWEPRP | 0.031 |
| RRIRSRPPRLPRPRPRPLVDPRP | 0.115 |
| RRIRTRPPRLPRPRPRPVAVPRP | 0.0298 |
| RRIRRRPPRLPRPRPRPRGLPRP | 0.396 |

| Sequence | shrunken log2 fold change |
| --- | --- |
| RRIRERPPRLPRPRPRPPPLPRP | 0.222 |
| RRIRERPPRLPRPRPRPNPNPRP | -0.365 |
| RRIRFRPPRLPRPRPRPGMRPRP | 0.44 |
| RRIRQRPPRLPRPRPRPDMYPRP | 0.0381 |
| RRIRVRPPRLPRPRPRPERPPRP | 0.0183 |
| RRIRLRPPRLPRPRPRPTNVPRP | -0.165 |
| RRIRVRPPRLPRPRPRPEFIPRP | -0.176 |
| RRIRSRPPRLPRPRPRPIHYPRP | -0.386 |
| RRIRGRPPRLPRPRPRPHDIPRP | 0.0295 |
| RRIRWRPPRLPRPRPRPNPAPRP | 0.098 |
| RRIRKRPPRLPRPRPRPMIDPRP | 0.21 |
| RRIRFRPPRLPRPRPRPCEEPRP | 0.178 |
| RRIRMRPPRLPRPRPRPVDPPRP | 0.0473 |
| RRIRMRPPRLPRPRPRPKRSPRP | 2.25 |
| RRIRERPPRLPRPRPRPNDTPRP | -0.348 |
| RRIRDRPPRLPRPRPRPQFWPRP | 0.345 |
| RRIRGRPPRLPRPRPRPLLMPRP | 1.22 |
| RRIRKRPPRLPRPRPRPHHEPRP | -0.0045 |
| RRIRRRPPRLPRPRPRPSNYPRP | -0.169 |
| RRIRQRPPRLPRPRPRPQDFPRP | -0.372 |
| RRIRLRPPRLPRPRPRPDCEPRP | 0.0566 |
| RRIRYRPPRLPRPRPRPPAFPRP | -0.242 |
| RRIRERPPRLPRPRPRPCEKPRP | 0.0102 |
| RRIRFRPPRLPRPRPRPRMKPRP | -0.0673 |
| RRIRSRPPRLPRPRPRPRAAPRP | 0.504 |

| Sequence | shrunken log2 fold change |
| --- | --- |
| RRIRLRPPRLPRPRPRPILDPRP | -0.05 |
| RRIRCRPPRLPRPRPRPWLHPRP | -0.305 |
| RRIRRRPPRLPRPRPRPWPKPRP | 0.13 |
| RRIRNRPPRLPRPRPRPTQFPRP | 0.138 |
| RRIRSRPPRLPRPRPRPGNYPRP | -0.0556 |
| RRIRMRPPRLPRPRPRPHYYPRP | -0.061 |
| RRIRCRPPRLPRPRPRPCAIPRP | 0.651 |
| RRIRMRPPRLPRPRPRPCPLPRP | -0.0594 |
| RRIRTRPPRLPRPRPRPGAQPRP | 0.283 |
| RRIRHRPPRLPRPRPRPLSTPRP | -0.0859 |
| RRIRPRPPRLPRPRPRPIGMPRP | -0.232 |
| RRIRDRPPRLPRPRPRPGNSPRP | -0.0582 |
| RRIRDRPPRLPRPRPRPRVWPRP | 0.352 |
| RRIRCRPPRLPRPRPRPGYTPRP | 0.00337 |
| RRIRCRPPRLPRPRPRPVIAPRP | -0.2 |
| RRIRPRPPRLPRPRPRPATWPRP | 0.253 |
| RRIRLRPPRLPRPRPRPEHSPRP | -0.0185 |
| RRIRNRPPRLPRPRPRPTTKPRP | -0.0801 |
| RRIRPRPPRLPRPRPRPAHHPRP | 0.207 |
| RRIRIRPPRLPRPRPRPKTLPRP | -0.229 |
| RRIRWRPPRLPRPRPRPQCRPRP | -0.00115 |
| RRIRGRPPRLPRPRPRPPINPRP | 0.21 |
| RRIRYRPPRLPRPRPRPETTPRP | -0.289 |
| RRIRFRPPRLPRPRPRPSPIPRP | -0.13 |
| RRIRDRPPRLPRPRPRPDRVPRP | -0.0392 |

| Sequence | shrunken log2 fold change |
| --- | --- |
| RRIRERPPRLPRPRPRPQCHPRP | -0.449 |
| RRIRIRPPRLPRPRPRPYHGPRP | -0.0135 |
| RRIRLRPPRLPRPRPRPSLHPRP | -0.471 |
| RRIRQRPPRLPRPRPRPQYEPRP | -0.349 |
| RRIRHRPPRLPRPRPRPGFHPRP | -0.323 |
| RRIRWRPPRLPRPRPRPQNGPRP | 0.00668 |
| RRIRDRPPRLPRPRPRPRYDPRP | -0.284 |
| RRIRCRPPRLPRPRPRPKEEPRP | -0.0302 |
| RRIRSRPPRLPRPRPRPSECPRP | -0.211 |
| RRIRYRPPRLPRPRPRPQKIPRP | -0.524 |
| RRIRRRPPRLPRPRPRPWFPPRP | -0.44 |
| RRIRMRPPRLPRPRPRPFFNPRP | -0.0839 |
| RRIRDRPPRLPRPRPRPHGQPRP | 0.237 |
| RRIRQRPPRLPRPRPRPYTCPRP | 0.0526 |
| RRIRHRPPRLPRPRPRPHFSPRP | 0.0854 |
| RRIRSRPPRLPRPRPRPINYPRP | -0.336 |
| RRIRCRPPRLPRPRPRPAQKPRP | -0.118 |
| RRIRERPPRLPRPRPRPKNNPRP | -0.464 |
| RRIRLRPPRLPRPRPRPPCCPRP | -0.0934 |
| RRIRQRPPRLPRPRPRPNSEPRP | -0.206 |
| RRIRTRPPRLPRPRPRPLTYPRP | 0.959 |
| RRIRSRPPRLPRPRPRPFCDPRP | -0.353 |
| RRIRTRPPRLPRPRPRPWAHPRP | -0.0917 |
| RRIRGRPPRLPRPRPRPNWCPRP | -0.0123 |
| RRIRLRPPRLPRPRPRPVPHPRP | -0.128 |

| Sequence | shrunken log2 fold change |
| --- | --- |
| RRIRARPPRLPRPRPRPSQPPRP | -0.0248 |
| RRIRFRPPRLPRPRPRPFNDPRP | 0.00352 |
| RRIRLRPPRLPRPRPRPKRQPRP | 0.045 |
| RRIRWRPPRLPRPRPRPGSAPRP | 0.432 |
| RRIRDRPPRLPRPRPRPNNAPRP | -0.204 |
| RRIRPRPPRLPRPRPRPMCHPRP | -0.22 |
| RRIRPRPPRLPRPRPRPATEPRP | 0.0977 |
| RRIRFRPPRLPRPRPRPKVQPRP | 0.199 |
| RRIRGRPPRLPRPRPRPRWIPRP | 0.152 |
| RRIRNRPPRLPRPRPRPVANPRP | -0.0653 |
| RRIRQRPPRLPRPRPRPSWDPRP | -0.16 |
| RRIRWRPPRLPRPRPRPACTPRP | 0.334 |
| RRIRCRPPRLPRPRPRPMHRPRP | 0.0421 |
| RRIRTRPPRLPRPRPRPNTDPRP | -0.615 |
| RRIRYRPPRLPRPRPRPGLEPRP | 0.114 |
| RRIRRRPPRLPRPRPRPVYGPRP | -0.0668 |
| RRIRSRPPRLPRPRPRPSHWPRP | 0.337 |
| RRIRPRPPRLPRPRPRPRQCPRP | 0.126 |
| RRIRNRPPRLPRPRPRPGPKPRP | 0.284 |
| RRIRFRPPRLPRPRPRPVMGPRP | 0.368 |
| RRIRMRPPRLPRPRPRPYKFPRP | 0.0435 |
| RRIRNRPPRLPRPRPRPAAIPRP | 1.95 |
| RRIRRRPPRLPRPRPRPYIYPRP | -0.268 |
| RRIRVRPPRLPRPRPRPGSGPRP | 0.0303 |
| RRIRSRPPRLPRPRPRPCCMPRP | -0.0571 |
